Results taken from the DeepSol protein solubility set.

Test: soluble on expression in E. coli; label from the status in PepcDB or PDB records

Sequence	soluble on expression in E. coli
SDLQTRFRPPGAEISIIGLSASLAELVPPSNIENAPQIPRGEDGFFERVGNATREMLVYVGSVVRFIKECVLVFKLGINRRKNVNWTTVSNIATRAGADAVP	not soluble
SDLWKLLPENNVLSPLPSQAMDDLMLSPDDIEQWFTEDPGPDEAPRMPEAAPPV	soluble
SDPNKAEISRLEVLPQDLLGEIVAKIGAKYAEDYHNCILSCKELGASANDERVLKTLNLAPLVKKPLSCRKHLLIMKKCLANNNPDAHYIKGIIWYFNLDHCDVGLHHIGIAAN	soluble
SDSAWTALDMETQTMLKTAIKDPKTVDLEKLSNAVVEHSLKDLSFCKDAGRMCYAVVQAEAQKTASSVFRRNLLNRLQQEFIAREETRKRSMQEWVCVVTFICSIFDYIKVNNSPIAALVDPVYDCLFRLAQPDSLMNEEEVDCLVVQLHRVGEQLEQTNSERMNQLFYLLRDGFLLQEDLSSMTRLLLLEILEFRASGWTLSETAHKYYYSEVAD	soluble
SDSDSGEQSEGELSPGHESFNSKSLALQAQKKILSKMATMAVANLLTDDTSSEILDELYKASREYTKSKKEAHKIIKDVIKIALKIGILYRNHQFSPEEMETVERFKKKMNQAAMTVVSFYEVEYTFDRGILSELLLECRDLLHELVEHHLTMRSHGRIDHVFNHFADVDFLTELYGPSEDYRLNLRKICDGINKLLDEGTL	soluble
SEACVSVTSSILSSMDPTVDPCHDFFSYACGGWIKANPVPDGHSRWGTFSNLWEHNQAIIKHLLENSTASVSEAERKAQVYYRACMNETRIEELRAKPLMELIERLGGWNITGPWAKDNFQDTLQVVTAHYRTSPFFSVYVSADSKNSNSNVIQVDQSGLGLPSRDYYLNKTENEKVLTGYLNYMVQLGKLLGGGDEEAIRPQMQQILDFETALANITIPQEKRRDEELIYHKVTAAELQTLAPAINWLPFLNTIFYPVEINESEPIVVYDKEYLEQISTLINTTDRCLLNNYMIWNLVRKTSSFLDQRFQDADEKFMEVMYGTKKTSLPRWKFCVSDTENNLGFALGPMFVKATFAEDSKSIATEIILEIKKAFEESLSTLKWMDEETRKSAKEKADAIYNMIGYPNFIMDPKELDKVFNDYTAVPDLYFENAMRFFNFSWRVTADQLRKAPNRDQWSMTPPMVNAYYSPTKNEIVFPAGILQAPFYTRSSPKALNFGGIGVVVGHELTHAFDDQGREYDKDGNLRPWWKNSSVEAFKRQTECMVEQYSNYSVNGEPVNGRHTLGENIADNGGLKAAYRAYQNWVKKNGAEHSLPTLGLTNNQLFFLGFAQVWCSVRTPESSHEGLITDPHSPSRFRVIGSLSNSKEFSEHFRCPPGSPMNPPHKCEVW	soluble
SEADASVDMFSKVLEHQLLQTTKLVEEHLDSEIQKLDQMDEDELERLKEKRLQALRKAQQQKQEWLSKGHGEYREIPSERDFFQEVKESENVVCHFYRDSTFRCKILDRHLAILSKKHLETKFLKLNVEKAPFLCERLHIKVIPTLALLKDGKTQDYVVGFTDLGNTDDFTTETLEWRLGSSDILNYSGNLMEPPFQNQKKFGTNFTKLEKKTIRGKKYDSDSDDD	soluble
SEAIQTLLDRKLPDEELEQINQACLSVKGVLGVHQLRTRMSGPTRFIQLHLELDDNLRLIEAHYIADKVEDNLLALFPEADVLIHQDPLSVVFGPEKEQKAQDW	not soluble
SEEEDDEVMVREGLMASQREIFSISGPIHLTSIDWNNSYHRTSVASCLVQAVYTLERDRQQNRIGLKSQANHWWEFFNFTLAETLIDDSDGSIYGAVFEYKHFFSYNYHHTPHSKPPPRHVIAFRGTILKPHSRSRDLKLDLRCIRDSLHDSTRFVHAIQVIQSAVAKTGNAAVWLAGHSLGAAVALLAGKIMTRSGFPLESYLFNPPFSSIPIEKLVKSEKLKHGVRFAGSLVKAGVAIAVKGRHHNKGQEDDSFMKLASWIPYLYLNPLDTICSEYIGYFKHRNKMFEIGAGKIERIATRNSLRSLLSGGGGGGSSSDSSSEPLHLLPSAYMTINASKSPNFKRAHGIHQWWDPMFNGEYVLHQFNN	soluble
SEEGSNKREGYNDQKQQARAGCGKELAVEEMIAAVSERKKGCCPPPPPPHGAPATPARNRPQTQGRGAAAPVVGWPPIRSFRRNLASSSSSKHSPEPQNDNANAKVTLTCKKNPLVKINMDGIPIGRKIDLAAYNSYDGLSSAVKQLFHGFLQAQKDQTNAQIAQQGADDKIFYQLLDGSGEYTLVYEDSEGDRMLVGDVPWKVFVSTAKRLRVLRSSELSHTLIGATARV	soluble
SEETYTDSLDPEKLLQCPYDKNHQIRACRFPYHLIKCRKNHPDVASKLATCPFNARHQVPRAEISHHISSCDDRSCIEQDVVNQTRSLRQETLAESTWQCPPCDEDWDKDLWEQTSTPFAWGTTHYSDNNSPASNIVTEHKNNLASGMRVPKSLPYVLPWKNNGNAQ	soluble
SEILISAVATDLISRFISSVTQNYRNHIHKEDDRRRLERILLRMHSVVEEAGGRHITNQGMILQLKGLVEGFYLGYYMLDKIKFQPPEYEVSHEIQSFALSACNSAKRFRFADAISKRTPVAFGSRSRTNLKDVVDGLETKIADMREFVILLGSHPRLPRQPYSTYLYIDNCMFGRRIEKEQVINFLLCNDPHDPYVSILPIIGPQRIGKKTLVQHACLDERVRDCFSHIFFFKEDDLKTGELSLNSKASQGKYLFVIEFIWDVDEAAWTKFQSYLQNMPATGIKVVVIGRTEDIAKFGTSQPIRVKRLSEEEYWYYFKALAFGSMDPDEHPKLASLAMQLSTEMNGSFLGATMFGELLRANPNTQFWKRILLFLRELARKHLTSSGLHPEDLFERNIPVDLSRIAVVDGQVQDFMVYDVRVAGPAEGELPKLTSRDILLGGDIPVEDKFDVLVWRSRIPPYCNYIVTYEKQKPRRMVGKRNTIYL	soluble
SEISRQEFQRRRQALVEQMQPGSAALIFAAPEVTRSADSEYPYRQNSDFWYFTGFNEPEAVLVLIKSDDTHNHSVLFNRVRDLTAEIWFGRRLGQDAAPEKLGVDRALAFSEINQQLYQLLNGLDVVYHAQGEYAYADVIVNSALEKLRKGSRQNLTAPATMIDWRPVVHEMRLFKSPEEIAVLRRAGEITAMAHTRAMEKCRPGMFEYHLEGEIHHEFNRHGARYPSYNTIVGSGENGCILHYTENECEMRDGDLVLIDAGCEYKGYAGDITRTFPVNGKFTQAQREIYDIVLESLETSLRLYRPGTSILEVTGEVVRIMVSGLVKLGILKGDVDELIAQNAHRPFFMAGLSHWLGLDVHDVGVYGQDRSRILEPGMVLTVEPGLYIAPDAEVPEQYRGIGIRIEDDIVITETGNENLTASVVKKPEEIEALMVAARKQ	soluble
SENSDVINFSCLEKELHSALQADRKYQRENDAKFRALNQKVASYEEFRDIVLASHLKPLDRNDISGSPRKQPWNPVACRTNYVCASSEQVQPQLSEVQPRSASEFIRDWRRFAGCSFEKYSLLVSLGGEALQKIFSTEIGLGLLGEFLLILSQCLKSGDEDRVTGVLDGLSKTGRFSINLSLLSQAEQEACEELFNKLKVAAGECHPYKDNSNTSVVCEAGLTHMEDNKTDITTTLKELAGKYGTEK	soluble
SEQTEVMKPETLEDLIKTLHQIFQSDSINVEEVQNLMESYQSNPQDWMKFAKFDQYRYTRNLVDEGNGKFNLMILCWGEGHGSSIHDHTDSHCFLKLLQGQLKETLFDWPDRKLQSGMKPRGQSVLQENQCAYINDSLGLHRVENVSHTEPAVSLHLYSPPFQSCRTFDQRTGHHNTVKMTFWSKYGERTPYELSVSQENN	soluble
SERLTSPPRLMIVSDLDETMVDHHKDPENLALLRFNSLWEDAYRHDSLLVFSTGRAQTMYKKLRKEKPLLTPDVIITSVGTEIAYGNSMVPDDNWVEILNKKWDRGIVQEETSKFPELTLQGETEQRPHKLSFNIDKSKVKAVTKELSPRLEKRGVDVKFIFSGGNAFDVLAKGGGKGQALAYLLKKLKTEGKLPINTLACGDSGNDTELFTIPNVYGVMVSNAQEELLEWYAENAKDNANIIHASERCAGGITQAIGHFKLGPNLSPRDVSDFLECKADNVNPGHEVVKFFLFYERWRRGEVENCTTYTSSLKASCHPSGVFVHPSGAEKSLRDTIDELGKYYGDKKGKKFRVWTDQVLATDTTPGTWIVKLDKWEQTGDERKCCTTTVKFTSKEGEGFVWEHVQQIWSEETEIKDDSNWII	not soluble
SESQEEIIHNIARHLAQIGDEMDHNIQPTLVRQL	soluble
SFAAEITLTTPDNFALKADYYPSKNSVKPANNRAVLMLHQCNYNRTMYNNIGAQLAQQSIHALSLDFRGFGESISSEFNVADVRKLPQAERGKAWSNMSSHWPEDVQLAFDYLKEKVGNNGKVGIIGASCGGSQAINLAEKENISAISFFSSSQRDENIARYGKTLVDTPTLIIASEDDGRTFTSAQQLFSTAKNPSSKMISYKGSMHGYPLLASDKALETTIVTWFSNEL	not soluble
SFELPALPYAKDALAPHISAETIEYHYGKHHQTYVTNLNNLIKGTAFEGKSLEEIIRSSEGGVFNNAAEVWNHTFYWNCLAPNAGGEPTGKVAEAIAASFGSFADFKAQFTDAAIKNFGSGWTWLVKNSDGKLAIVSTSNAGTPLTTDATPLLTVDVWEHAYYIDYRNARPGYLEHFWALVNWEFVAKNLAA	soluble
SFGVIQKEERFNEVFLNYFKENKIEIAHAITKLFPFLESLRDHSFITDKIYADSYEACRNSVPIVKVVYNVLSHLERLSDSSFLWALFNRVNLKEYPALREIHKSLGTELQDRYSPQKCKQEEQKLATVHPSYEQGTNLCTHEKWAQPCFVKQDNLQEPEIQQNQVDEIIVISSESSECSDEDEEDQALGTGLRRQMNKEAEDSAPHRRSRT	soluble
SFRRKLTALEYHNPTGFDCKDETEFRNFIVWLEDQKIRHYKIEDRGNLRNIPSSDWPKYFEKYLQDVNCPFSVQERQETVDWLLGLAVRFEYGDNVEKYRNCKPVTETNDVQKSADPLINLDSNNPDFKAGVLALANLLKIQRHDDYLVMLKAIKILVQERLTPDAIAKASQAKEGLPVTLDKHILGFDTGDATLNEAAQVLRLLHIEELRELQTKINEAIVAVQAIIADPKTDHRLGKVGR	soluble
SGEIKVSPDYNWFRSTVPLKKIIVDDDDSKIWSLYDAGPRSIRCPLIFLPPVSGTADVFFQQILALTGWGYRVIALQYPVYWDHLEFCDGFRKLLDHLQLDKVHLFGASLGGFLAQKFAEYTHKSPRVHSLILCNAFSDTSIFNQTWTANSFWLMPAFMLKKIVLGNFSSGPVDPMMADAIDFMVDRLESLGQSELASRLTLNCQNSYVEPHKIRDIPVTIMDIHLLQFHGTKYAAIDPSVVSAEELDVQKGQLDLSQEEP	soluble
SGIMNIILQDNVQEIEGVVVTGYQQIKNRVFTGAAASVKLDEIKLNGVSDVSRMLEGRIAGLSIQNVTGSFGAAPRINIRGGASIMGNVQPLWVIDGAVYEDLVSLTLDQLASGDAVTLISSAVAGLNASDIEDIQVLKDASATSIYGARALNGVIVITTRSGKRNA	not soluble
SGPWANICAGKSSNEIRTCDRHGCGQYSAQRSQRPHQGVDVLCSAGSTVYAPFTGMIVGQEKPYQNKNAINNGVRISGRGFCVKMFYIKPIKYKGPIKKGEKLGTLLPLQKVYPGIQSHVHIENCDSSDPTAYL	soluble
SGRARRAEQDARAVELGLQLVGDNLQVLHAGNPAEPALRAYLGMGLSELHVLEQPDGADALAALTDYIRDSGAQMVLAGSQAETGEGSGMLPFLLAEGLGWPLVTGLAEVESLSNGTALVLQALPRGQRRRLKVRLPFLATVDNAAPAPRQSAYGPAQRGILDVDKIETVIDDLFTAQSLQPAKPRPKRLKVIKAKSGADRMKAATAKASGGSGQVLKGLSPEQSAAAILKLLIDEGVV	not soluble
